Holding throughout (assay type): cell-based, mouse
For data set [1], the system named is MEF5/N9 cells. The data set can be described thus: Visible phenotypic changes / viability of stably transfected MEF5/N9 clones on 4-OH-tamoxifen treatment. The conditions noted are these: 10^−8 M 4-OH-tamoxifen, 24 h. A digest of the protocol: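 Hygromycin-selected MEF5/N9 clones stably expressing ER(T2) fusion proteins were plated at 1·10^5 cells/well and next day given 10^−8 M 4-hydroxy-tamoxifen. Cell death was judged from phase-contrast micrographs at 10- or 20-fold magnification taken 24 h after induction.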

Data set [2] has as its system MEF5/N9 cells. The data set is described as follows: MTT cytotoxicity assay of stably transfected MEF5/N9 clones. The conditions noted are these: 10^−8 M 4-OH-tamoxifen, 48 h. A digest of the protocol:
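Hygromycin-selected MEF5/N9 clones stably carrying ER(T2) fusion constructs, 4·10^3 cells/well, treated 48 h with or without 10^−8 M 4-OH-tamoxifen, in triplicate. Survival measured by MTT (0.5 mg/ml, 4 h, 37° C), formazan dissolved in HCl/isopropanol, absorbance at 570 nm.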
(Tetrazolium assays rely on reduction of a dye to a coloured formazan, in cell work by metabolically active cells.)

Data set [3] concerns MEF5/N9 cells. The data set can be described thus: TUNEL in situ cell death detection assay of MEF5/N9 clones. The settings on record: 10^−8 M 4-OH-tamoxifen, 3 or 7 hours. From the text: TUNEL, or terminal deoxynucleotidyl transferase-mediated dUTP nick end-labeling, is acknowledged as a method of choice in the rapid detection of DNA fragmentation that results from apoptotic signaling cascades (Gavrieli et al., J. Cell Biol., 119(3), 493-501 (1992)). Cleavage of genomic DNA during apoptosis may yield double-stranded, low molecular weight DNA fragments as well as single strand breaks (“nicks”) in high molecular weight DNA. Those DNA strand breaks can be identified by terminal deoxynucleotidyl transferase (TdT), which catalyzes polymerization of labeled nucleotides to free 3′-OH DNA ends in a template-independent manner. To detect 4-OH-tamoxifen induced cell death in MEF5/N9 cells, we applied the In Situ Cell Death Detection Kit, POD by Roche according to the manufacturer's instructions. Incorporated fluorescein is detected by anti-fluorescein antibody, conjugated with horse-radish peroxidase (POD). After substrate reaction, stained cells can be analyzed under light microscopy.
Two days prior to the TUNEL staining, round glass cover slips ([…]) were sterilized with 70% EtOH, dried under laminar flow and coated with Poly-L-lysine at a concentration of 50 μg/ml over night at 37° C., which allows a better attachment of cells on the cover slips. The following day, the cover slips were rinsed 3 times with PBS and dried for 1 hour under laminar flow. 2.5·10^5 cells were seeded onto cover slips in a 6-well plate. On the test day, medium was replaced either by fresh medium or medium supplemented with 10^−8 M 4-OH-tamoxifen. […] After fixation, cells were rinsed three times in PBS, covered with 100% methanol and incubated for 10 min or over night in a freezer and rinsed in PBS. Endogenous peroxidase activity was blocked by immersing cover slips for 10 min in 3% H2O2 in methanol prior to cell permeabilization. Cells were subsequently rinsed with PBS and incubated in permeabilization solution (0.1% Triton X-100 in freshly prepared 0.1% sodium citrate) for 2 min on ice. To generate a positive control, DNA strand breaks were induced by incubating permeabilized cells with 2 U/ml DNase I in 50 mM Tris-HCl, pH 7.5, 10 mM MgCl2, 1 mg/ml BSA for 10 min at room temperature, prior to labeling procedure. Cover slips were rinsed twice with PBS before incubating each sample with 25 μl TUNEL reaction mixture for 60 min at 37° C. in a humidified atmosphere in the dark. To avoid evaporative loss, cover slips were covered with parafilm. For a negative control 25 μl of Label solution without enzyme solution were added. Following labeling, cover slips were rinsed 3 times with PBS for 10 min each. To convert the fluorescence signal to a chromogenic signal, 25 μl of the POD solution were added on each sample which was covered with parafilm and incubated in a humidified chamber for 30 min at 37° C. Subsequently, cover slips were rinsed 3 times with PBS and incubated in freshly prepared 0.05% DAB in 0.1 M Tris-HCl (pH 7.4) supplemented with 0.02% H2O2 for 10-20 min at room temperature. The conversion procedure was controlled under a light microscope. The reaction was stopped with PBS until brown precipitates were well visible inside the cells. To remove DAB, cover slips were rinsed several times in PBS. Optionally, nuclear staining was performed by incubating cover slips for 15 min in 2.5 μg/ml DAPI diluted in PBS. Cover slips were mounted with a water-soluble, non-fluorescing mounting medium (Aqua-Poly/Mount; Polysciences Inc., Eppelheim, Germany) under SuperFrost slides (VWR International). Prior to the analysis of the samples under a light microscope, mounting medium was dried for 24 hours at room temperature.
To provide direct evidence for 4-OH-tamoxifen-induced apoptosis in MEF5/N9 clones expressing Caspase-8 or -9 fusion proteins, an in situ application of the TUNEL assay was performed. This method detects DNA fragmentation, one of the late events that result from apoptotic signaling cascades. […]

B1: Cre-ER(T2): fusion of Cre recombinase to ER(T2) ligand binding domain, negative control, SEQ ID NO: 5 (protein)
chain: MSNLLTVHQNLPALPVDATSDEVRKNLMDMFRDRQAFSEHTWKMLLSVCRSWAAWCKLNNRKWFPAEPEDVRDYLLYLQARGLAVKTIQQHLGQLNMLHRRSGLPRPSDSNAVSLVMRRIRKENVDAGERAKQALAFERTDFDQVRSLMENSDRCQDIRNLAFLGIAYNTLLRIAEIARIRVKDISRTDGGRMLIHIGRTKTLVSTAGVEKALSLGVTKLVERWISVSGVADDPNNYLFCRVRKNGVAAPSATSQLSTRALEGIFEATHRLIYGAKDDSGQRYLAWSGHSARVGAARDMARAGVSIPEIMQAGGWTNVNIVMNYIRNLDSETGAMVRLLEDGDLEPSAGDMRAANLWPSPLMIKRSKKNSLALSLTADQMVSALLDAEPPILYSEYDPTRPFSEASMMGLLTNLADRELVHMINWAKRVPGFVDLTLHDQVHLLECAWLEILMIGLVWRSMEHPVKLLFAPNLLLDRNQGKCVEGMVEIFDMLLATSSRFRMMNLQGEEFVCLKSIILLNSGVYTFLSSTLKSLEEKDHIHRVLDKITDTLIHLMAKAGLTLQQQHQRLAQLLLILSHIRHMSNKGMEHLYSMKCKNVVPLYDLLLEAADAHRLHAPTSRGGASVEETDQSHLATAGSTSSHSLQKYYITGEAEGFPATA
modifications: fusion protein Cre-ER(T2)
Turning to B1, the figures for the “4-OH-tamoxifen-dependent cell death, phenotype of stable clones” value in the data set with MEF5/N9 cells [1] and in the data set on MEF5/N9 cells [1] (listed as CreER) were “did not respond to 4-OH-tamoxifen” and “not affected by the treatment with 4-OH-tamoxifen”, respectively. For the same molecule, in the data set with MEF5/N9 cells [2], the “cell viability in the presence of 4-OH-tamoxifen (MTT)” value was “not affected by treatment with 4-OH-tamoxifen”. In addition, the “TUNEL result / apoptotic morphology (in words)” value in the data set with MEF5/N9 cells [3] was “TUNEL negative at any point in time”.

(Values after patent US8530168B2, “Fusion protein comprising a Caspase domain and a nuclear hormone receptor binding domain and methods and uses thereof” (Helmholtz Zentrum Munich Deutsches Forschungszentrum fuer …, priority 2007, dated 2013).)
